In patent US9383360B2, “Compositions and methods relating to lyme disease” (The United States of America, as represented by the …, priority 2012, dated 2016):

Legend:
Aggrecan [1] = molecular target: T1, Aggrecan (Bos taurus, UniProt P13608); test: BbHtrA proteolysis assay, aggrecan substrate; assay type: biochemical, bovine, human; conditions: native bovine aggrecan, SDS-PAGE, FIG. 4B
T1 construct: recombinant human aggrecan (G1-IGD-G2 domains)
Procedure: (§1) For proteolysis assays described in Examples herein, purified protein substrates (200-600 nM) and proteases (100-150 nM) were diluted in assay buffer (50 mM HEPES, pH 7.4, 5 mM CaCl2) and incubated overnight at 37° C. Samples were boiled for 4 minutes to inactivate the proteases. Proteoglycans were deglycosylated by overnight incubation at 37° C. with 0.01 U chondroitinase ABC (Seikagaku). Reactions were stopped by the addition of SDS/PAGE sample buffer, boiled for 4 minutes, and electrophoresed on pre-cast Tris-glycine gels (BioRad). Reaction products were visualized by silver staining.
(§2) BbHtrA cleaved recombinant human aggrecan (G1-IGD-G2 domains) within the IGD (FIG. 4A). Cleavage of recombinant aggrecan generated three high molecular weight proteolytic fragments which migrated at ˜110 kd, ˜60 kd and ˜50 kd.
(§3) BbHtrA also degraded native, fully glycosylated aggrecan (FIG. 4B, lane 5). Again, this degradation required BbHtrA catalytic activity (FIG. 4B, lane 6). The BbHtrA-generated aggrecan fragments appear to be a doublet, unlike those generated by HtrA1.
(§4) Purified proteins were incubated with BbHtrA or BbHtrA^S226A as described herein. HtrA (also known as DegP) proteases belong to the family of serine proteases which contain a highly reactive serine residue in their active site. This serine (Ser210 in DegP) is part of the canonical His-Ser-Asp catalytic triad and mutation of the catalytic serine abolishes proteolytic activity (Skorko-Glonek et al., 1995). In BbHtrA, residues His119, Ser226 and Asp149 form the catalytic triad and mutation of serine 226 to alanine abolished proteolytic activity as expected (FIG. 5).
(§5) Reaction products were separated by SDS-PAGE and silver stained. Native collagen II and recombinant tenascin C were not degraded by BbHtrA indicating selectivity for proteoglycans, E-cadherin and fibronectin. FIG. 5 is an image of SDS-PAGE analysis showing that BbHtrA degrades aggrecan, neurocan, versican, brevican, biglycan, decorin, E-cadherin, and casein.

Aggrecan [2] = test: BbHtrA proteolysis assay, aggrecan substrate; assay type: biochemical, bovine, human; conditions: SDS-PAGE
Procedure: as §1, §2, §3, §4, §5

E-cadherin = molecular target: T2, E-cadherin (Homo sapiens, UniProt P12830); test: BbHtrA proteolysis assay, E-cadherin substrate; assay type: biochemical; conditions: SDS-PAGE, FIG. 5
T2 sequence (P12830 155-882): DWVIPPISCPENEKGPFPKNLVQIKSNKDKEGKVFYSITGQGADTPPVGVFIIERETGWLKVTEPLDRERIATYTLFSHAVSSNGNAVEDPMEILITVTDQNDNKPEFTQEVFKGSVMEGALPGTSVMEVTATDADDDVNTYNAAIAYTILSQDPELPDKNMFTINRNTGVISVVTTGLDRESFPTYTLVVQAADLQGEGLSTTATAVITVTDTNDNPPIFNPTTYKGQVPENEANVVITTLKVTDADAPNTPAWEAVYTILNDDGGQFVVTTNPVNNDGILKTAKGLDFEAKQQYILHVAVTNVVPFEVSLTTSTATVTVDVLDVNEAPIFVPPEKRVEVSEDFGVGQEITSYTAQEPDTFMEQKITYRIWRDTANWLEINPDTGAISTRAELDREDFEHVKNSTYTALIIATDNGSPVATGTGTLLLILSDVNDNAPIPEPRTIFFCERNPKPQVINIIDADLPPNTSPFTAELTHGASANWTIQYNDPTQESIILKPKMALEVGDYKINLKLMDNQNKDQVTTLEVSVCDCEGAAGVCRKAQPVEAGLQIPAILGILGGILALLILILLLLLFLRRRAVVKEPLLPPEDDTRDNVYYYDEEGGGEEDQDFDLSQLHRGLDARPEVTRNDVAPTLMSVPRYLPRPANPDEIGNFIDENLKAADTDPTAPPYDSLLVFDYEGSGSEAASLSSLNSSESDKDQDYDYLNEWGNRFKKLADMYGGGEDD
Procedure: as §1, §4
Reaction products were separated by SDS-PAGE and silver stained. Native collagen II and recombinant tenascin C were not degraded by BbHtrA indicating selectivity for proteoglycans, E-cadherin and fibronectin. […]

T1 sequence (P13608 17-2364): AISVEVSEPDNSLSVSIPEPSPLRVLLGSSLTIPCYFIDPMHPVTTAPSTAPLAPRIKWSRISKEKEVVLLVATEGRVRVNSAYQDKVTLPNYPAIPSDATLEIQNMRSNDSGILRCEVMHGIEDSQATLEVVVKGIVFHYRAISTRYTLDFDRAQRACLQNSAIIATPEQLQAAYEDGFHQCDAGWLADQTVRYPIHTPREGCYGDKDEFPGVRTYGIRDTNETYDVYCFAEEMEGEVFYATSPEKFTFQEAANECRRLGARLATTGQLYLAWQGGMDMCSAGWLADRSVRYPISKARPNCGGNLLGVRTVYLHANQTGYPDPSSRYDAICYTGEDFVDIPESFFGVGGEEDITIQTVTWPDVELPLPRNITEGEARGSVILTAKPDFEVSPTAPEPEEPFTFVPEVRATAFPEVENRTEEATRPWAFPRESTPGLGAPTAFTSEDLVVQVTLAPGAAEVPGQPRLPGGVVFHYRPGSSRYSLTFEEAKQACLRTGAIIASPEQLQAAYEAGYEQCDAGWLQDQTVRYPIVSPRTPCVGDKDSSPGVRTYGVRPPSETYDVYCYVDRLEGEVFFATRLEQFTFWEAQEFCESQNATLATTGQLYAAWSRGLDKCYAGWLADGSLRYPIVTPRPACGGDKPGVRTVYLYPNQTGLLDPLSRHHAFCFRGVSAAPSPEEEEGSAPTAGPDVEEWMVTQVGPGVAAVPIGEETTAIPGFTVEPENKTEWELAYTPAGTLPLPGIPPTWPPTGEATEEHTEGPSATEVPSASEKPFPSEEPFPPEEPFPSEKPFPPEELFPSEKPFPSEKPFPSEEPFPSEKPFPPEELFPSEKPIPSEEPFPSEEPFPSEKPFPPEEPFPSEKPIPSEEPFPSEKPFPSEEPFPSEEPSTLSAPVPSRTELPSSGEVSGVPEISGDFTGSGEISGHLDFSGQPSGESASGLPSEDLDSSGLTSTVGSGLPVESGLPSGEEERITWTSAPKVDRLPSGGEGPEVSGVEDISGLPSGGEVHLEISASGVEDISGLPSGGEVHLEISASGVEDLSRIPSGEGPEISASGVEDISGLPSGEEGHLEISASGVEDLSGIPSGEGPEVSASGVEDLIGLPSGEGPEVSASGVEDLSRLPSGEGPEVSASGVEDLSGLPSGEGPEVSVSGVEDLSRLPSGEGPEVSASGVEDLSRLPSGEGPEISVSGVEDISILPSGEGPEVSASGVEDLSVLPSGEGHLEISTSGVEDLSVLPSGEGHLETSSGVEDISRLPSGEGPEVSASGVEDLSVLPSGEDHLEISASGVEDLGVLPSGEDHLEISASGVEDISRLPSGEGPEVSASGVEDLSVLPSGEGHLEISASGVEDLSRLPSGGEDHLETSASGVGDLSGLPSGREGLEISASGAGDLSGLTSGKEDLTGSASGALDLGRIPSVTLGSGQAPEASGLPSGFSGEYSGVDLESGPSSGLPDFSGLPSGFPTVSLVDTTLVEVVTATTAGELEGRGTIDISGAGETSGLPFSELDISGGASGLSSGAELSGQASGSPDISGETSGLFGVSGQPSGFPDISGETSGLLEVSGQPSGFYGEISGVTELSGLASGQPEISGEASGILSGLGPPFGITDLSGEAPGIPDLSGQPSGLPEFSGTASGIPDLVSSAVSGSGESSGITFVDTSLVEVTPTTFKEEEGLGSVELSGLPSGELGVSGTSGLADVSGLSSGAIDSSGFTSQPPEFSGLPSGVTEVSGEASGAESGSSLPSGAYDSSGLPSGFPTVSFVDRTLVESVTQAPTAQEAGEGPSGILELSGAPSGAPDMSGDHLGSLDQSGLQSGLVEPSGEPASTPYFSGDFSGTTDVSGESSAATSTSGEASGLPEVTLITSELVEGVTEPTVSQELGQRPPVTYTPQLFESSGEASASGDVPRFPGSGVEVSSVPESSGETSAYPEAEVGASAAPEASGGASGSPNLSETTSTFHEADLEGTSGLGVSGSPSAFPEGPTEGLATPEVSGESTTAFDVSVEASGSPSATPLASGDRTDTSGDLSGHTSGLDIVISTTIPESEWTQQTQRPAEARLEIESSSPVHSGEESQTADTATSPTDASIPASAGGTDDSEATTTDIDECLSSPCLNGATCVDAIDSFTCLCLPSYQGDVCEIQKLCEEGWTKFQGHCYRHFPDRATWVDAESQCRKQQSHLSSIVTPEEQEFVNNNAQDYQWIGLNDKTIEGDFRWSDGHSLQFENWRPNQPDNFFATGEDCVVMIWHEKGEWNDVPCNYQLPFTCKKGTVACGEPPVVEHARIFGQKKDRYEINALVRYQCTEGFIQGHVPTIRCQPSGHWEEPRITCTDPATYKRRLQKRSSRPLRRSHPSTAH

B1: BbHtrA: Recombinant wild type B. burgdorferi HtrA serine protease, mature protein amino acids 38-474, expressed in E. coli (SEQ ID NO:1, 9) (protein, listed as Borrelia burgdorferi)
chain: EEKDNTVRALQDSFREVSKKILPSSVEVHATGVIKQSFPIPFFFFDMPEFDSERKSNWAGSGVIIGRDSQKKSLFYVVTNSHVVDKATELEVVSYDKKKHKAKLIGKDEKKDIALISFESDDATIKVADLGDSDKLEIGDWVMAVGSPFQFSFTVTAGIVSGLQRSANPNLQSRNLFIQTDAAINRGNSGGPLVNIKGEVIGINAWIASNSGGNIGLGFAIPVNNIKSTVDFFLKGKKIESAWLGISFYPLKTRDSEVLKSLGVESNDVSAAIIASLYPGSPAVKSGLRAGDIIMKVNGVSMSVFQDVTSYISDFYAGEKVNVEILRGNVKKNIEIVLAVRPKDKELSSSKMLPGFVVYPLVEDIKAQLNLRNWIKGVVVDYIDKNLASNIKMKSGDVILSVNSKSVSNLREFYDALEVGKNTYKILRGNDSFKITF
Degradation of native, fully glycosylated aggrecan (Aggrecan [1]): degraded
Degradation of aggrecan (Aggrecan [2]; FIG. 5): degrades
Cleavage of recombinant human aggrecan (G1-IGD-G2 domains) within the IGD (Aggrecan [2]; silver stain, FIG. 4A): cleaved
Degradation of E-cadherin (E-cadherin): degrades
